Laboratory results as given in publication PMC2741639 (Microbiological research, 2008).

Molecular target: the molecule itself
Test: native gel or EMSA

B1: His-tagged Sbm (enzyme, E. coli, UniProt P27253 1-714, looked up)
chain: MSNVQEWQQLANKELSRREKTVDSLVHQTAEGIAIKPLYTEADLDNLEVTGTLPGLPPYVRGPRATMYTAQPWTIRQYAGFSTAKESNAFYRRNLAAGQKGLSVAFDLATHRGYDSDNPRVAGDVGKAGVAIDTVEDMKVLFDQIPLDKMSVSMTMNGAVLPVLAFYIVAAEEQGVTPDKLTGTIQNDILKEYLCRNTYIYPPKPSMRIIADIIAWCSGNMPRFNTISISGYHMGEAGANCVQQVAFTLADGIEYIKAAISAGLKIDDFAPRLSFFFGIGMDLFMNVAMLRAARYLWSEAVSGFGAQDPKSLALRTHCQTSGWSLTEQDPYNNVIRTTIEALAATLGGTQSLHTNAFDEALGLPTDFSARIARNTQIIIQEESELCRTVDPLAGSYYIESLTDQIVKQARAIIQQIDEAGGMAKAIEAGLPKRMIEEASAREQSLIDQGKRVIVGVNKYKLDHEDETDVLEIDNVMVRNEQIASLERIRATRDDAAVTAALNALTHAAQHNENLLAAAVNAARVRATLGEISDALEVAFDRYLVPSQCVTGVIAQSYHQSEKSASEFDAIVAQTEQFLADNGRRPRILIAKMGQDGHDRGAKVIASAYSDLGFDVDLSPMFSTPEEIARLAVENDVHVVGASSLAAGHKTLIPELVEALKKWGREDICVVAGGVIPPQDYAFLQERGVAAIYGPGTPMLDSVRDVLNLISQHHD
- stoichiometry N: 2
